According to patent publication US12630600B2 (MEDIMMUNE LIMITED, priority 2022, dated 2026):
Starred links: 1 amine or outer side, 2 acyl side, 3 side chain; linkers in the order of their positions; H or OH if unused. Non-standard residues stand in square brackets, D forms with d. Groups on a side chain read outwards from the residue. No end group written: not given here. *: point of attachment. C20 diacid = O=C(O)CCCCCCCCCCCCCCCCCCC(=O)*; C18 diacid = O=C(O)CCCCCCCCCCCCCCCCC(=O)*; γGlu = O=C(O)[C@H](CCC(=O)[*:2])N[*:1]; αMeF = C[C@](N)(Cc1ccccc1)C(=O)O; AEEA = NCCOCCOCC(=O)O; Aib = CC(C)(N)C(=O)O

B1: Peptide 139 (peptide)
peptide: H[Aib]QGTFTSDVSK[αMeF]LDSK([γGlu-γGlu-AEEA-AEEA-γGlu-γGlu-C20 diacid])RAQDFVRWLLE[Aib]G-OH
B2: Peptide 141 (peptide)
peptide: H[Aib]QGTFTSDVSK[αMeF]LDSK([AEEA-AEEA-γGlu-C18 diacid])RAQDFVAWLLE[Aib]G-OH
modifications: N-terminus assumed
SMILES: CC(C)C[C@H](NC(=O)[C@H](Cc1c[nH]c2ccccc12)NC(=O)[C@H](C)NC(=O)[C@@H](NC(=O)[C@H](Cc1ccccc1)NC(=O)[C@H](CC(=O)O)NC(=O)[C@H](CCC(N)=O)NC(=O)[C@H](C)NC(=O)[C@H](CCCNC(=N)N)NC(=O)[C@H](CCCCNC(=O)COCCOCCNC(=O)COCCOCCNC(=O)CC[C@H](NC(=O)CCCCCCCCCCCCCCCCC(=O)O)C(=O)O)NC(=O)[C@H](CO)NC(=O)[C@H](CC(=O)O)NC(=O)[C@H](CC(C)C)NC(=O)[C@](C)(Cc1ccccc1)NC(=O)[C@H](CCCCN)NC(=O)[C@H](CO)NC(=O)[C@@H](NC(=O)[C@H](CC(=O)O)NC(=O)[C@H](CO)NC(=O)[C@@H](NC(=O)[C@H](Cc1ccccc1)NC(=O)[C@@H](NC(=O)CNC(=O)[C@H](CCC(N)=O)NC(=O)C(C)(C)NC(=O)[C@@H](N)Cc1c[nH]cn1)[C@@H](C)O)[C@@H](C)O)C(C)C)C(C)C)C(=O)N[C@@H](CC(C)C)C(=O)N[C@@H](CCC(=O)O)C(=O)NC(C)(C)C(=O)NCC(=O)O
B3: Peptide 138 (peptide)
peptide: H[Aib]QGTFTSDVSK[αMeF]LDSK([γGlu-γGlu-AEEA-AEEA-γGlu-γGlu-C18 diacid])RAQDFVRWLLE[Aib]G-OH
modifications: N-terminus assumed
SMILES: CC(C)C[C@H](NC(=O)[C@H](Cc1c[nH]c2ccccc12)NC(=O)[C@H](CCCNC(=N)N)NC(=O)[C@@H](NC(=O)[C@H](Cc1ccccc1)NC(=O)[C@H](CC(=O)O)NC(=O)[C@H](CCC(N)=O)NC(=O)[C@H](C)NC(=O)[C@H](CCCNC(=N)N)NC(=O)[C@H](CCCCNC(=O)CC[C@H](NC(=O)CC[C@H](NC(=O)COCCOCCNC(=O)COCCOCCNC(=O)CC[C@H](NC(=O)CC[C@H](NC(=O)CCCCCCCCCCCCCCCCC(=O)O)C(=O)O)C(=O)O)C(=O)O)C(=O)O)NC(=O)[C@H](CO)NC(=O)[C@H](CC(=O)O)NC(=O)[C@H](CC(C)C)NC(=O)[C@](C)(Cc1ccccc1)NC(=O)[C@H](CCCCN)NC(=O)[C@H](CO)NC(=O)[C@@H](NC(=O)[C@H](CC(=O)O)NC(=O)[C@H](CO)NC(=O)[C@@H](NC(=O)[C@H](Cc1ccccc1)NC(=O)[C@@H](NC(=O)CNC(=O)[C@H](CCC(N)=O)NC(=O)C(C)(C)NC(=O)[C@@H](N)Cc1c[nH]cn1)[C@@H](C)O)[C@@H](C)O)C(C)C)C(C)C)C(=O)N[C@@H](CC(C)C)C(=O)N[C@@H](CCC(=O)O)C(=O)NC(C)(C)C(=O)NCC(=O)O

target: human glucagon receptor (human, UniProt P47871); assay: cell-based or functional assay

cAMP production, hGluc-R EC50 (pM)	Binder
984	B1
392	B2
184	B3

target: human GLP-1 receptor (human, UniProt P43220); assay: cell-based or functional assay

cAMP production, hGLP-1R EC50 (pM)	Binder
630	B1
264	B2
104	B3
